Measured values: patent US20200048328A1 (Bristol-Myers Squibb, published 2020)

Tests used:
[1] = molecular target: T1, mouse serum albumin (mouse, UniProt P07724 25-608); test: SPR, albumin immobilized, acetate pH 5.5
T1 construct: also called MSA; MuSA

[2] = molecular target: T2, human serum albumin (human, UniProt P02768 25-609); test: SPR, albumin immobilized, acetate pH 5.5
T2 construct: immobilized on chips or coated on plates elsewhere; also called HSA; HuSA

[3] = molecular target: T3, rhesus serum albumin (rhesus, UniProt Q28522 17-600); test: SPR, albumin immobilized, acetate pH 5.5
T3 construct: also called RhSA; Rh-SA
T3 sequence (Q28522 17-600 limits assumed): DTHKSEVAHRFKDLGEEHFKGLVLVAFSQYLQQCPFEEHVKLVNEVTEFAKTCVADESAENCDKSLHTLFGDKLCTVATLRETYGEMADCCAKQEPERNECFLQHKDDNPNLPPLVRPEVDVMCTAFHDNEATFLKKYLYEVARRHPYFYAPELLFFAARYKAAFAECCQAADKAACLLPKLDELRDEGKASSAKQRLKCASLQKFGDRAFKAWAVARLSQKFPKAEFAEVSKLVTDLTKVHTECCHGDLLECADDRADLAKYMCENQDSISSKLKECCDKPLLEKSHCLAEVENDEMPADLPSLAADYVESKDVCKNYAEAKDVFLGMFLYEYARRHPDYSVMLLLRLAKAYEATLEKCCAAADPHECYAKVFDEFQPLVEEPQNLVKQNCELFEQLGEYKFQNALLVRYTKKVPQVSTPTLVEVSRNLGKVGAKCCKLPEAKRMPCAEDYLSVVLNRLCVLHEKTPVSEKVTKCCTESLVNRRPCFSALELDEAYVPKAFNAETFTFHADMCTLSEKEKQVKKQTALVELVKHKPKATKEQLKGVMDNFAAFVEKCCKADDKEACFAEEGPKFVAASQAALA

[4] = molecular target: T4, human PCSK9 (human, UniProt Q8NBP7 31-692); test: PCSK9:EGFA FRET 1, competition
T4 construct: also called hPCSK9; huPCSK9

[5] = molecular target: T1, mouse serum albumin; test: SPR, albumin immobilized, HBSP pH 7.4
[6] = molecular target: T2, human serum albumin; test: SPR, albumin immobilized, HBSP pH 7.4
[7] = molecular target: T3, rhesus serum albumin; test: SPR, albumin immobilized, HBSP pH 7.4
[8] = molecular target: T1, mouse serum albumin; test: SPR, albumin immobilized;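 further: biacore SPR with human, rhesus or mouse serum albumin amine-coupled to the chip (about 1200 RU), 3 min association, 6-10 min dissociation, reference-subtracted traces fitted with a 1:1 model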
Method: (§1) To determine the kinetics of binding to human, rhesus, and mouse serum albumin, as well as whether binding was retained at both physiological and endosomal pHs, the respective serum albumins were immobilized on a Biacore CMS chip to a surface density of ˜1200 RU using standard NHS/EDC coupling. […] Kinetic measurements were carried out using a 3 min association and 6-10 min dissociation phase. Kinetic traces of reference-subtracted sensorgrams were fit to a 1:1 binding model using the Biaevaluation software.

[9] = molecular target: T2, human serum albumin; test: SPR, albumin immobilized;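 further: biacore SPR with human, rhesus or mouse serum albumin amine-coupled to the chip (about 1200 RU), 3 min association, 6-10 min dissociation, reference-subtracted traces fitted with a 1:1 model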
Method: as §1

[10] = molecular target: T3, rhesus serum albumin; test: SPR, albumin immobilized;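 further: biacore SPR with human, rhesus or mouse serum albumin amine-coupled to the chip (about 1200 RU), 3 min association, 6-10 min dissociation, reference-subtracted traces fitted with a 1:1 model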
Method: as §1

[11] = molecular target: T5, rat serum albumin (rat, UniProt P02770 25-608); test: Albumin KD (37° C.), summary table; rat serum albumin (fourth value of the list)
T5 construct: also called Rat SA; RSA
T5 sequence (P02770 25-608 limits assumed): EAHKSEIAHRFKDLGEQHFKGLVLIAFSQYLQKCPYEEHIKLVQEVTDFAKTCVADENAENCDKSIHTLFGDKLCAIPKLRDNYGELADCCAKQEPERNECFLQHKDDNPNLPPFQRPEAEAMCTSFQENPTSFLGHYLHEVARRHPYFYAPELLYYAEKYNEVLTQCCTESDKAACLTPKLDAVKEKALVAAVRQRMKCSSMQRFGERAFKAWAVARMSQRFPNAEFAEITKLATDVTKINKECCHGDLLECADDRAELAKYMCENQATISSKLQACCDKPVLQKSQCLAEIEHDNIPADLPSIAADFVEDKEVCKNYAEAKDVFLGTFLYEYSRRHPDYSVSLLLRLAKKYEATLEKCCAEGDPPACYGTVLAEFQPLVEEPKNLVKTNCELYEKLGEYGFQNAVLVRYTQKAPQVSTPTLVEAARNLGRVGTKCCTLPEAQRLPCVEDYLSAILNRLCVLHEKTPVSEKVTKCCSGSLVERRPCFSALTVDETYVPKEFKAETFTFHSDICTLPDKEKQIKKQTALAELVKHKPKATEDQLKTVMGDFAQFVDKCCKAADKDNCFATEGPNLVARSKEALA

[12] = molecular target: T4, human PCSK9; test: PCSK9:EGFA FRET 2, competition
[13] = molecular target: T2, human serum albumin; test: Albumin KD (37° C.), summary table; human serum albumin (first value in the cell)
[14] = molecular target: T4, human PCSK9; test: PCSK9:LDLR FRET, competition
[15] = molecular target: T4, human PCSK9; test: PCSK9:EGFA FRET human, summary table
[16] = molecular target: T1, mouse serum albumin; test: SPR, albumin immobilized, acetate pH 7.4
[17] = molecular target: T2, human serum albumin; test: SPR, albumin immobilized, acetate pH 7.4
[18] = molecular target: T3, rhesus serum albumin; test: SPR, albumin immobilized, acetate pH 7.4
[19] = molecular target: T1, mouse serum albumin; test: Albumin KD (37° C.), summary table; mouse serum albumin (third value of the list)
[20] = molecular target: T4, human PCSK9; test: BLI (Octet), biotinylated PCSK9 on tips, tandem in complex with excess HSA
From the text: (§2) Binding curves were globally fit to produce values for KD, kₒₙ, and koff.

[21] = molecular target: T4, human PCSK9; test: BLI (Octet), biotinylated PCSK9 on tips, no HSA
From the text: as §2

[22] = molecular target: T6, cynomolgus serum albumin (cynomolgus, UniProt A2V9Z4 25-608); test: Albumin KD (37° C.), summary table; cynomolgus serum albumin (second value in the cell)
T6 construct: also called cynoSA; CySA
T6 sequence (A2V9Z4 25-608 limits assumed): as the sequence (Q28522 17-600 limits assumed) above

[23] = molecular target: T1, mouse serum albumin; test: direct binding ELISA, albumin coated
Method: (§3) Cross-species albumin binding was determined using the ELISA method described above.

[24] = molecular target: T2, human serum albumin; test: direct binding ELISA, albumin coated
Method: as §3

[25] = molecular target: T3, rhesus serum albumin; test: direct binding ELISA, albumin coated
Method: as §3

T1 sequence (P07724 25-608 limits assumed): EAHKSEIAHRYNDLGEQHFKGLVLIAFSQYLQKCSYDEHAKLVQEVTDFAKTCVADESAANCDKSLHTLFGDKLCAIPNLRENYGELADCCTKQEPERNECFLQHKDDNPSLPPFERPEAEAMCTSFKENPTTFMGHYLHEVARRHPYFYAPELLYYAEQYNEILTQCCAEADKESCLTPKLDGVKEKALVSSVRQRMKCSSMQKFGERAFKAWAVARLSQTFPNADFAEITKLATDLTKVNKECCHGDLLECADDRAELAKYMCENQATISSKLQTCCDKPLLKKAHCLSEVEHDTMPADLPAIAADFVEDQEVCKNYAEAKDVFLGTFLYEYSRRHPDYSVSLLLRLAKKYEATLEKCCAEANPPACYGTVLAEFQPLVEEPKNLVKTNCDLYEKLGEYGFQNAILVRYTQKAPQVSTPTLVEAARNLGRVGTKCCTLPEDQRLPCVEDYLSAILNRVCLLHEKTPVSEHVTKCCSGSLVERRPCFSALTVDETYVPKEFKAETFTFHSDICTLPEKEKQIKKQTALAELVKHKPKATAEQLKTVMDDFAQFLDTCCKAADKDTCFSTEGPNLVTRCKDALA

- Kd [1]: 123 nM
- koff [1]: 0.00161 s⁻¹
- kon [1]: 13100 M⁻¹ s⁻¹
- Kd [2]: 38.2 nM
- koff [2]: 0.000466 s⁻¹
- kon [2]: 12200 M⁻¹ s⁻¹
- Kd [3]: 97.5 nM
- koff [3]: 0.000815 s⁻¹
- kon [3]: 8360 M⁻¹ s⁻¹
- IC50 [4]: 9.18 nM
- Kd [5]: 28.2 nM
- koff [5]: 0.000336 s⁻¹
- kon [5]: 11900 M⁻¹ s⁻¹
- Kd [6]: 72 nM
- koff [6]: 0.000258 s⁻¹
- kon [6]: 3580 M⁻¹ s⁻¹
- Kd [7]: 78.9 nM
- koff [7]: 0.000305 s⁻¹
- kon [7]: 3860 M⁻¹ s⁻¹
- Kd [8]: 26.1 nM
- koff [8]: 0.000301 s⁻¹
- kon [8]: 11500 M⁻¹ s⁻¹
- Kd [9]: 73.7 nM
- koff [9]: 0.000289 s⁻¹
- kon [9]: 3920 M⁻¹ s⁻¹
- Kd [10]: 77 nM
- koff [10]: 0.000337 s⁻¹
- kon [10]: 4380 M⁻¹ s⁻¹
- Kd [11]: 200 nM
- IC50 [12]: 3.09 nM
- Kd [13]: 57 nM
- IC50 [14]: 1.4 nM
- IC50 [15]: 1.5 nM
- Kd [16]: 34.8 nM
- koff [16]: 0.000375 s⁻¹
- kon [16]: 10800 M⁻¹ s⁻¹
- Kd [17]: 74.7 nM
- koff [17]: 0.000325 s⁻¹
- kon [17]: 4350 M⁻¹ s⁻¹
- Kd [18]: 80.7 nM
- koff [18]: 0.000364 s⁻¹
- kon [18]: 4510 M⁻¹ s⁻¹
- Kd [19]: 43 nM
- Kd [20]: 1.55 nM
- koff [20]: 0.000305 s⁻¹
- kon [20]: 197000 M⁻¹ s⁻¹
- Kd [21]: 0.515 nM
- koff [21]: 0.000168 s⁻¹
- kon [21]: 336000 M⁻¹ s⁻¹
- Kd [22]: 51 nM
- EC50 [23]: 15.6 nM
- EC50 [24]: 184 nM
- EC50 [25]: 131 nM
B1: PCSK9-PKE2 tandem Adnectin w/ his tag 4472_C06 (designed binder)
chain: MGVSDVPRDLEVVAATPTSLLISWDAPAEGYGYYRITYGETGGNSPVQEFTVPVSKGTATISGLKPGVDYTITVYAVEFDFPGAGYYHRPISINYRTEPSTPPTPSPSTPPTPSPSGVSDVPRDLEVVAATPTSLLISWDAPAVTVRYYRITYGREVQKYSDLGPLYIYQEFTVPGSKSTATISGLKPGVDYTITVYAVTGSGESPASSKPISINYRTEHHHHHH
notes: also called ATI-1574; ADX_4472_C06
